From article PMC5342150, “PRMT5 competitively binds to CDK4 to promote G1-S transition upon glucose induction in hepatocellular carcinoma” (Oncotarget, 2016)

Legend:
6× His-tagged PRMT5 = target: T1, 6× His-tagged PRMT5 (human, UniProt O14744 1-637); assay: pull-down; binding reaction (500 μl) with 100 μl purified His-p16^INK4a (or His-PRMT5) and increasing amounts (50, 100, 200, 400 μl) of purified His-PRMT5 (or His-p16^INK4a) incubated with GST-fused CDK4 1-70 aa; Western blot; conditions: both partners purified
T1 construct: protein arginine methyltransferase 5 (PRMT5), human; also called His-PRMT5
T1 sequence (O14744 whole entry, the tested form may be a part): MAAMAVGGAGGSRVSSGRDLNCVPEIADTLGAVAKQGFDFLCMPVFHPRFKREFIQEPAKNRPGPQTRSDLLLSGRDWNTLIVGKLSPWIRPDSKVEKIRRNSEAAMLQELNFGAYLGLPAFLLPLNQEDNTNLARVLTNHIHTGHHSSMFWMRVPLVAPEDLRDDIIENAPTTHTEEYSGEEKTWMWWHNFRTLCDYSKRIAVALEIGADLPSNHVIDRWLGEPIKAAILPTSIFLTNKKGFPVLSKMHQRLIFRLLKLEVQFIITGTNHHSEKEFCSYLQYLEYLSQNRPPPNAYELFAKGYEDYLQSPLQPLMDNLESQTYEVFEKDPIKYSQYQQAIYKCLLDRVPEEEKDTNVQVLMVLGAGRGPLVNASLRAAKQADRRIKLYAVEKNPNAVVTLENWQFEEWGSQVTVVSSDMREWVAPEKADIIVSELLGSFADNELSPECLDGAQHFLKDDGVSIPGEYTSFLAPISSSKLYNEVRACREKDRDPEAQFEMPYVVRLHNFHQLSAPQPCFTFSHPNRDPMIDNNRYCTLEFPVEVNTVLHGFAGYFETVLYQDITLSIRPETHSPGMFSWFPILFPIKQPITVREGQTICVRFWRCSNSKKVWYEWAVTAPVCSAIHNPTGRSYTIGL

6× His-tagged p16^INK4a = target: T2, 6× His-tagged p16^INK4a (human, UniProt P42771 1-156); assay: as above; conditions: both partners purified
T2 construct: p16^INK4a, the major isoform of CDKN2A, human; also called His-p16^INK4a; CDKN2A
T2 sequence (looked up): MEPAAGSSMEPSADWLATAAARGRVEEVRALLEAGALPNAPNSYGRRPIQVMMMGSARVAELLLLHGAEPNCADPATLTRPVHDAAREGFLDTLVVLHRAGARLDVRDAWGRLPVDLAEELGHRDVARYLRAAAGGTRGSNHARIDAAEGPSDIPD

B1: GST-fused CDK4 1-70 aa (domain or fragment, human, UniProt P11802-1 1-70, looked up)
chain: MATSRYEPVAEIGVGAYGTVYKARDPHSGHFVALKSVRVPNGGGGGGGLPISTVREVALLRRLEAFEHPN
notes: cyclin dependent kinase 4 (CDK4), human, amino acids 1-70 of NP_000066; also called GST-CDK4 fragment 1-70; source: E. coli BL21, purified (glutathione-Sepharose 4B beads)
What does the source list for B1?
binding result (6× His-tagged PRMT5): binds; binding result (6× His-tagged p16^INK4a): binds
